We go through ten molecules from patent US20260028403A1 (Zymeworks, published 2026).

T1: Mouse CLDN18 A2.1 (mouse, UniProt P56857 10-264)
T1 construct: on transfected HEK293-6E cells; also called Mouse CLDN18 2.1; mouse CLDN18.2 ortholog
T1 chain: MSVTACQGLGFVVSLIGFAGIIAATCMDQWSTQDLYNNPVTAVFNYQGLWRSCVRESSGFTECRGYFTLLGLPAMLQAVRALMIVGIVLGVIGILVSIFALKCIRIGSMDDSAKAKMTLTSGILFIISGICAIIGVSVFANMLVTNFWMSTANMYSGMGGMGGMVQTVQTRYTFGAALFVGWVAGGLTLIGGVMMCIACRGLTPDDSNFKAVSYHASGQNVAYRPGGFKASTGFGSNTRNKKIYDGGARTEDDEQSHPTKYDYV

T2: Cynomolgus monkey CLDN18 (cynomolgus monkey)
T2 construct: on transfected HEK293-6E cells; also called Cyno CLDN18; cyno CLDN18.2 ortholog
T2 chain: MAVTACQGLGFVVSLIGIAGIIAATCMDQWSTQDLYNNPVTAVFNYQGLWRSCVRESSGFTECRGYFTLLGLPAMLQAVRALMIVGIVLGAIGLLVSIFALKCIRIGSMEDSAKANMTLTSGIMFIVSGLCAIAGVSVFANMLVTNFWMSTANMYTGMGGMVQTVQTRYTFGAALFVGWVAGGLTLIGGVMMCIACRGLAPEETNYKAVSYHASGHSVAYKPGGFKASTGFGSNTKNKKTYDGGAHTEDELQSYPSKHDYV

B1: v38990 (trispecific antibody, human IgG1, kappa, L234A L235A)
heavy 1: not shown
heavy 2: EVQLVESGGGLVQPGGSLRLSCAASGVTFNYYGMSWIRQAPGKGLEWVASITSSGGRIYYPDSVKGRFTISRENTQKTLYLQMNSLRAEDTAVYYCTLDGRDGWVAYWGQGTLVTVSSGGGGSGGGGSGGGGSGGGGSNFMLTQPHSVSESPGKTVTISCKRNTGNIGSNYVNWYQQHEGSSPTTIIYRNDKRPDGVSDRFSGSIDRSSKSASLTISNLKTEDEADYFCQSYSSGFIFGGGTKLTVLAAEPKSSDKTHTCPPCPAPEAAGGPSVFLFPPKPKDTLMISRTPEVTCVVVSVSHEDPEVKFNWYVDGVEVHNAKTKPREEQYNSTYRVVSVLTVLHQDWLNGKEYKCKVSNKALPAPIEKTISKAKGQPREPQVYVLPPSRDELTKNQVSLLCLVKGFYPSDIAVEWESNGQPENNYLTWPPVLDSDGSFFLYSKLTVDKSRWQQGNVFSCSVMHEALHNHYTQKSLSLSPG
light: DIQMTQSPSSLSASVGDRVTITCRASESVEYYVTSLMQWYQQKPGKAPKLLIYAASNVDSGVPSRFSGSGSGTDFTLTISSLQPEDIATYYCQQSRKVPFTFGGGTKVEIKRTVAAPSVFIFPPSDEQLKSGTASVVCLLNNFYPREAKVQWKVDNALQSGNSQESVTEQDSKDSTYSLSSTLTLSKADYEKHKVYACEVTHQGLSSPVTKSFNRGEC
notes: also called v37642 format, CD28 VH Y1113S
B2: v38991 (trispecific antibody, human IgG1, kappa, L234A L235A)
heavy 1: not shown
heavy 2: B1 heavy 2
light: B1 light
notes: also called v37642 format, CD28 VH N1111aA
B3: v37411 (antibody, human IgG1, V domains shown)
VH: QVQLVESGGGLVQPGGSLRLSCSVSGIDLSSNPMIWVRQAPGKGLQYIGIIDTDGSTYYADWAKGRFTISKDSTTVYLQINSPRAEDTAVYYCARRLHGSSNGYYDDLWGQGTLVTVSS
VL: DGQMTQSPSSVSASVGDRVTITCQASQSIYSYLSWYQQKPGQRPKLLIYKASTLASGVPSRFSGSGSGTDFTLTISSVQPEDFATYYCQQGYTVTNVDKNTFGGGTKVEIK
notes: human IgG1-based monoclonal antibody; also called H5-L4; anti-CLDN18.2 mAb
B4: v38993 (trispecific antibody, human IgG1, kappa, L234A L235A)
heavy 1: not shown
heavy 2: B1 heavy 2
light: B1 light
notes: also called v37642 format, CD28 VH L1112aN
B5: v38992 (trispecific antibody, human IgG1, kappa, L234A L235A)
heavy 1: not shown
heavy 2: B1 heavy 2
light: B1 light
notes: also called v37642 format, CD28 VH G1064S
B6: v37407 (antibody, human IgG1, V domains shown)
VH: B3 VH with Q46E, I80M, P83L
VL: B3 VL
notes: human IgG1-based monoclonal antibody; also called H4-L4
B7: v37409 (antibody, human IgG1, V domains shown)
VH: QVQLVESGGGLVQPGGSLRLSCSVSGIDLSSNPMIWVRQAPGKGLEYIGIIDTDGSTYYADWAKGRFTISKDSSKNTVYLQMNSLRAEDTAVYYCARRLHGSSNGYYDDLWGQGTLVTVSS
VL: B3 VL
notes: human IgG1-based monoclonal antibody; also called H2-L4
B8: v37410 (antibody, human IgG1, V domains shown)
VH: B7 VH with E46Q
VL: B3 VL
notes: human IgG1-based monoclonal antibody; also called H3-L4
B9: v37408 (antibody, human IgG1, V domains shown)
VH: B3 VH with Q46E, I80M, P83L
VL: B3 VL with F83A, I110V
notes: human IgG1-based monoclonal antibody; also called H4-L2
B10: v35777 (antibody, human IgG1, V domains shown)
VH: QSLEESGGRLVTPGTPLTLTCTVSGIDLSSNPMIWVRQAPGKGLQYIGIIDTDGSTYYASWAKGRFTGSKTSTTVDLKITSPTTEDTATYFCARRLHGSSNGYYDDLWGQGTLVTISS
VL: DGVMTQTPSSVSAAVGGTVTIKCQASQSIYSYLSWYQQKPGQRPKLLIYKASTLASGVPSRFKGSGSGTEFTLTISGVQCDDAATYYCQQGYTVTNVDKNTFGGGTEVVVK
notes: also called parental rabbit chimeric; rabbit-human chimeric IgG1/kappa anti-CLDN18.2

Numbering of substitutions follows the chain as printed. Names may count otherwise.

The target of the first test is T3, CD28 on primary human T cells (human, UniProt P10747 19-220). In words: cell-based or functional assay.
Consider B1, for which the “IC50, TDCC on SNU 601-RFP, 1:5 E:T” value stood at 0.145 nM; the “IC50, TDCC on SNU 601-RFP, 2:1 E:T” value worked out at 0.00358 nM; the “Maximum Mean Cytotoxicity (%), 1:5 E:T” value worked out at 95.4%; the “Maximum Mean Cytotoxicity (%), 2:1 E:T” value was found to be 97.8%.

Consider B2, for which the “IC50, TDCC on SNU 601-RFP, 1:5 E:T” value was found to be 0.0127 nM; the “IC50, TDCC on SNU 601-RFP, 2:1 E:T” value stood at 0.000838 nM; the “Maximum Mean Cytotoxicity (%), 1:5 E:T” value worked out at 95.6%; the “Maximum Mean Cytotoxicity (%), 2:1 E:T” value came out at 98.2%.

The target in the next test is T4, Human CLDN18.2 (human).
T4 construct: on transfected HEK293-6E cells or native on SNU 601 cells
In words: flow cytometry, SNU 601 cells.
A word on the EC50: it is the concentration giving half of the maximal effect. As to B3, the Bmax amounted to 11700 MFI and the response was half-maximal at 8.9 nM (EC50).

The target of a further test is T3, CD28 on primary human T cells. In words: cell-based or functional assay. This is another data set of the same source.
For B1, the “IFNg mean cytokine, T cells alone, 45 nM construct” value (from here on “IFNg mean cytokine, T cells alone”) was found to be 0.9 pg/mL and the “IL-2 mean cytokine, T cells alone, 45 nM construct” value (from here on “IL-2 mean cytokine, T cells alone”) amounted to 1.8 pg/mL.

Turning to B2, the “IFNg mean cytokine, T cells alone” value was 15.4 pg/mL and the “IL-2 mean cytokine, T cells alone” value was 26.5 pg/mL.

On to B4, for which the “IFNg mean cytokine, T cells alone” value turned out to be 475 pg/mL and the “IL-2 mean cytokine, T cells alone” value is 1520 pg/mL.

Consider B5, for which the “IFNg mean cytokine, T cells alone” value came to 559 pg/mL and the “IL-2 mean cytokine, T cells alone” value turned out to be 1690 pg/mL.

The target of another test is T1, Mouse CLDN18 A2.1. In words: flow cytometry, HEK293-6E + mouse CLDN18, 4PL fit. On the technique in general: Flow cytometry measures light scatter and fluorescence of single cells or particles in a stream.
Method: (§1) The purified rabbit chimeric and humanized constructs were assessed for binding to HEK293-6E cells transfected with human, cynomolgus monkey, or mouse CLDN18.2 orthologs (TABLE 12) by flow cytometry. […] Constructs were also assessed for binding to HEK293-6E cells transfected with human CLDN18.1.
Consider B6, for which the Bmax worked out at 1540 and the EC50 stood at 0.8 nM.

Turning to B7, the Bmax turned out to be 1530 and the EC50 amounted to 0.89 nM.

As to B8, the Bmax was 1690 and the EC50 was determined as 1.02 nM.

As to B9, the Bmax turned out to be 1920 and the EC50 was 2.65 nM.

For the molecule B3, the Bmax came out at 1790 and the EC50 was determined as 1.03 nM.

As for B10, the Bmax came to 1640 and the EC50 came to 0.87 nM.

The target of a further test is T5, Recombinant human/cynomolgus/rhesus macaque CD28 mouse IgG2a Fc fusion protein (Acro Biosystems) (human/cynomolgus/rhesus macaque, UniProt P10747 19-152).
T5 construct: bought; also called huCD28
In words: SPR, in-format anti-CD28 variants, huCD28.
The Kd is the free concentration of one partner at which half of the binding sites on the other are occupied at equilibrium, for simple one-to-one binding. Turning to B1, the “Fold-change from WT” value stood at 225 fold and the Kd was determined as 9510 nM.

For orientation: koff means the rate constant with which the complex falls apart. The term kon denotes the rate constant with which the complex forms. With B2, the “Fold-change from WT” value was determined as 6.1 fold, the dissociation constant (Kd) was 257 nM, the off-rate constant (koff) turned out to be 0.0145 s⁻¹ and the kon worked out at 62900 M⁻¹ s⁻¹.

B4: the “Fold-change from WT” value came to 3.4 fold, the dissociation constant Kd stood at 144 nM, the koff is 0.00817 s⁻¹ and the kon came out at 59000 M⁻¹ s⁻¹.

Regarding B5, the “Fold-change from WT” value worked out at 3.1 fold, the Kd was determined as 130 nM, the koff was 0.00738 s⁻¹ and the kon turned out to be 59800 M⁻¹ s⁻¹.

Another test addresses T4, Human CLDN18.2. Kind of test: flow cytometry, HEK293-6E + human CLDN18.2, 4PL fit.
Method: as §1
As to B6, the Bmax is 2040 and the 50% effective concentration (EC50) turned out to be 1.54 nM.

Turning to B7, the Bmax is 1960 and the EC50 amounted to 1.22 nM.

In the case of B8, the Bmax is 1910 and the EC50 was 0.97 nM.

In the case of B9, the Bmax turned out to be 2190 and the EC50 worked out at 1.87 nM.

For the molecule B3, the Bmax is 2170 and the EC50 is 1.05 nM.

As to B10, the Bmax was 2070 and the EC50 stood at 1.29 nM.

In a further test the target is T3, CD28 on primary human T cells. Kind of test: cell-based or functional assay. The source holds these as a separate data set.
As for B1, the “IFNg EC50, T cells + SNU 601” value is 0.604 nM; the “IFNg maximum cytokine, T cells + SNU 601” value is 3290 pg/mL; the “IL-2 EC50, T cells + SNU 601” value stood at 1.56 nM; the “IL-2 maximum cytokine, T cells + SNU 601” value was 5240 pg/mL.

In the case of B2, the “IFNg EC50, T cells + SNU 601” value was determined as 0.0909 nM; the “IFNg maximum cytokine, T cells + SNU 601” value was 6150 pg/mL; the “IL-2 EC50, T cells + SNU 601” value was found to be 0.0222 nM; the “IL-2 maximum cytokine, T cells + SNU 601” value was determined as 9620 pg/mL.

Take B4: the “IFNg EC50, T cells + SNU 601” value stood at 0.0793 nM; the “IFNg maximum cytokine, T cells + SNU 601” value was 4450 pg/mL; the “IL-2 EC50, T cells + SNU 601” value is 0.0287 nM; the “IL-2 maximum cytokine, T cells + SNU 601” value is 8410 pg/mL.

On to B5, for which the “IFNg EC50, T cells + SNU 601” value was found to be 0.023 nM; the “IFNg maximum cytokine, T cells + SNU 601” value came to 3990 pg/mL; the “IL-2 EC50, T cells + SNU 601” value was found to be 0.00916 nM; the “IL-2 maximum cytokine, T cells + SNU 601” value is 5560 pg/mL.

The target of another test is T2, Cynomolgus monkey CLDN18. In words: flow cytometry, HEK293-6E + cyno CLDN18, 4PL fit.
Method: as §1
As for B6, the Bmax was 1410 and the EC50 was 0.24 nM.

Regarding B7, the Bmax was determined as 1500 and the EC50 is 0.35 nM.

As for B8, the Bmax was 1500 and the EC50 was 0.31 nM.

For the molecule B9, the Bmax worked out at 1520 and the EC50 worked out at 0.36 nM.

As to B3, the Bmax came out at 1730 and the EC50 worked out at 0.37 nM.

Turning to B10, the Bmax was 1660 and the EC50 was 0.48 nM.
